This note sets out measurements from patent US20120232127A1, “REGULATION OF NEUROTRANSMITTER RELEASE THROUGH ANION CHANNELS” (KOREA INSTITUTE OF SCIENCE AND TECHNOLOGY, priority 2008, published 2012).

One data set has as its target T1, mBest1 (Mus musculus, UniProt O88870).
T1 sequence (O88870 1-551): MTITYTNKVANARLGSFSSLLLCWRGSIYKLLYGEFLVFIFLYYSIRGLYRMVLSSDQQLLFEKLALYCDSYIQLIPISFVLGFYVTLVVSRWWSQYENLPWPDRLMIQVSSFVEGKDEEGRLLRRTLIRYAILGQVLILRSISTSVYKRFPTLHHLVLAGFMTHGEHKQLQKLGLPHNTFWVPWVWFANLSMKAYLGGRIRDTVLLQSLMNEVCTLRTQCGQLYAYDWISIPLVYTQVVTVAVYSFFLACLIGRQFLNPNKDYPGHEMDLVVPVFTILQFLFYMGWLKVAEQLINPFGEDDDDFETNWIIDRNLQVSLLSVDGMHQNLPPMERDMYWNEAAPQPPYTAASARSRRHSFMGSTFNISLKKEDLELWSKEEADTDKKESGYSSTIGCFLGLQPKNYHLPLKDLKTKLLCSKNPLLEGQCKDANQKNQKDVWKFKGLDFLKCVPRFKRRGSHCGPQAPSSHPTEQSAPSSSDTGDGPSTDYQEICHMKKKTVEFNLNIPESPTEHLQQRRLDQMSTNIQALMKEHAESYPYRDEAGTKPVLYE
The data set can be described thus: Whole cell patch clamp of mBest1-expressing HEK293T cells. Type of data set: cell-based. The conditions noted are these: HEK293T cells transfected with mBest1 cDNA. Also on record: the full-length mBest1 was cloned from both astrocyte and testis cDNAs and transiently expressed in HEK293T cells; expressed in transfected cells; host or cells: HEK293T cells (ATCC). The protocol:
In order to express mBest1 in mammalian cells, an mBest1 full-length fragment from pGEM-T easy plasmid (6.65 kb, Promega) was subcloned into pcDNA 3.1 (Invitrogen) by HindIII site and NotI site. The plasmid constructs were transfected into HEK293T cells (ATCC) using Effectene transfection reagent (Qiagen). To carry out whole cell patch clamp recordings, 1.5˜2 μg of plasmid, which was obtained by cloning mBest1 in cDNA extracted from mouse brain or cultured astrocytes, and then, subcloning into pcDNA3.1 plasmid (Invitrogen), plus pEGFP-N1 (Clontech) were used to transfect one 35 mm culture dish. One day after transfection, cells were replated onto glass coverslips for electrophysiological recording. Transfected cells were identified by EGFP fluorescence and used for patch clamp experiments within 24-36 hrs.
Patch pipettes which have 3-6MΩ of resistance are filled with the standard intracellular solution. Current voltage curves were established by applying 100- or 200-ms-duration voltage ramps from −100 to +100 mV. The ramp duration was 10 s. […] The concentration of free [Ca^2+]i in the solution was determined (Kuruma, A. & Hartzell, H. C. Bimodal control of a Ca(^2+)-activated Cl(−) channel by difference Ca(^2+) signals. J Gen Physiol 115, 59-80 (2000), which is hereby incorporated by reference for all purposes as if fully set forth herein). […]

The test system of data set [1] is intracellular Ca2+ in cultured astrocytes. Description: Ca2+ imaging of TFLLR-induced [Ca2+]i transient in cultured astrocytes. Type of data set: cell-based, mouse. The conditions noted are these: shRNA expressing astrocytes, sniffer patch, TFLLR. How it is done:
The External solution was comprised of (in mM) 150 NaCl, 10 HEPES, 3 KCl, 2 CaCl2, 2 MgCl2, 5.5 glucose, at pH 7.3 (˜320 mOsm). For voltage clamp recordings, the internal solution contained 25 μg/ml gramicidin D and (in mM) 75 Cs2SO4, 10 NaCl, 0.1 CaCl2, and 10 HEPES, at pH 7.1 (˜310 mOsm). For current clamp recordings, the internal solution contained 25 μg/ml gramicidin D and (in mM) 75 K2SO4, 10 KCl, 0.1 CaCl2, and 10 HEPES, at pH 7.1 (˜310 mOsm). Pipette resistances ranged from 5 to 8 MΩ. For perforated patch clamp, it took 20 to 30 min to achieve acceptable perforation, with final series resistances ranging from 15 to 40 MΩ.
To test if activation of PAR1 by its specific agonist (e.g., TFLLR) causes any change in membrane conductance that might contribute to glutamate release from astrocytes, the whole cell currents and intracellular Ca^2+ responses in cultured astrocytes under gramicidin-D perforated patch configuration were simultaneously recorded (FIG. 1a). This technique minimized dialysis of intracellular ions.

B1: mBest1 shRNA: mBest1-specific short hairpin RNA, SEQ ID NO: 3 and 4 (lentiviral: SEQ ID NO: 30), nucleotides 563-582 of mBest1 (nucleic acid)
chain 1: GATCCCCTTGCCAACTTGTCAATGAATTCAAGAGATTCATTGACAAGTTGGCAATTTTTA
chain 2: GGGAACGGTTGAACAGTTACTTAAGTTCTCTAAGTAACTGTTCAACCGTTAAAAATTCGA
Turning to B1, the “knock-down of mBest1 channel” value in the data set with mBest1 was “specific and efficient knock-down”. Further, the “increase in astrocytic intracellular Ca2+” value in data set [1] is on record as “unaffected”.
